Results taken from the supplement of paper PMC9732359.
± gives the uncertainty stated by the source.

Assay: protein stability index of a GFP-peptide fusion (yeast GPS) (PSI 1-4); higher = more stable; sorted into four equal gates, so the index is relative within each strain
How it was run: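 Tiled yeast protein peptides of 17 residues were each joined downstream of GFP, on plasmids that also express Cherry. The pooled library was maintained in yeast, and mid-log cultures in leucine-free medium were sorted into four equal gates on the GFP/Cherry ratio. Plasmids from every gate were amplified by PCR and sequenced on Illumina, with barcodes linking reads to strains. The protein stability index of a peptide is its gate-number-weighted read frequency summed over the gates.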

| Sequence | protein stability index (doa10∆) | protein stability index (pdr5∆) | protein stability index (san1∆) | protein stability index (ubr1∆) |
| --- | --- | --- | --- | --- |
| SGSLFGSNNAQTSRGLF [YGL172W/NUP49] | 3.03 ± 0.073 | 3.01 ± 0.06 | 2.95 ± 0.047 | 2.84 ± 0.064 |
| EGVEYLREYLNLPEHIV [RPS10A] | 3.31 ± 0.081 | 3.32 ± 0.078 | 3.2 ± 0.072 | 3 ± 0.087 |
| KWEQTYKKPTGGIVTVR [FAS1] | 3.07 ± 0.064 | 2.04 ± 0.054 | 2.2 ± 0.1 | 2.37 ± 0.053 |
| VFVGSGKGTGKTAMAEL [BRR2] | 3.29 ± 0.12 | 3.54 ± 0.15 | 3.44 ± 0.071 | 3.41 ± 0.098 |
| DFELEISWCSLSETNGL [PRE10] | 2.92 ± 0.076 | 2.93 ± 0.094 | 2.84 ± 0.083 | 2.84 ± 0.069 |
| VSSKPSKPESSVLQLIV [MED1] | 2.73 ± 0.13 | 3.28 ± 0.11 | 2.94 ± 0.073 | 3.27 ± 0.098 |
| TIETFNEAALVVNITHH [RPB5] | 1.69 ± 0.11 | 1.92 ± 0.061 | 1.64 ± 0.16 | 1.58 ± 0.13 |
| SLDLNNLELGGLNMDFL [PGD1] | 3.24 ± 0.098 | 3.19 ± 0.099 | 3.37 ± 0.082 | 2.74 ± 0.11 |
| KDSYINANTIETAKMIE [FAS2] | 3.14 ± 0.045 | 3.07 ± 0.044 | 3.18 ± 0.032 | 3.16 ± 0.044 |
| KEQTIQLPSKFTCSCNS [RPN14] | 2.15 ± 0.065 | 2.53 ± 0.057 | 1.96 ± 0.063 | 2.16 ± 0.038 |
| PAKVAEEGINKFKKEKF [SRP54] | 3.2 ± 0.066 | 3.44 ± 0.059 | 3.38 ± 0.046 | 3.23 ± 0.057 |
| QMIELNRQICLVQKTVQ [GRR1] | 3.03 ± 0.1 | 2.56 ± 0.055 | 2.5 ± 0.063 | 2.09 ± 0.055 |
| DPTLTTTTSFTTSEATA [RPN4] | 2.85 ± 0.075 | 2.98 ± 0.067 | 2.58 ± 0.057 | 2.92 ± 0.066 |
| DENAPVATNANATTDQE [PRE10] | 3.09 ± 0.23 | 3.33 ± 0.15 | 3.4 ± 0.17 |  |
| KKRREYFPEGYNNKVGV [SIR2] | 2.42 ± 0.13 | 3.56 ± 0.19 | 2.54 ± 0.2 | 2.69 ± 0.047 |
| SIKDTQNVGQGKLQRKE [BRN1] | 1.96 ± 0.1 | 2.56 ± 0.081 | 1.94 ± 0.11 | 2.7 ± 0.049 |
| MSNKVKTKAMVPPINCI [SME1] | 2.42 ± 0.057 | 2.35 ± 0.053 | 2.64 ± 0.05 | 2.57 ± 0.035 |
| ERKKSIGSQRGRRLSML [DSN1] | 3.18 ± 0.11 | 2.53 ± 0.087 | 3.13 ± 0.098 | 2.92 ± 0.093 |
| KINPFGFEQVKIALGSP [RRI2] | 2.65 ± 0.08 | 2.91 ± 0.053 | 2.77 ± 0.068 | 2.78 ± 0.07 |
| IIFQQLLFWTDPRNLVN [YCG1] | 2.04 ± 0.082 | 2.35 ± 0.067 | 3.1 ± 0.059 | 2.13 ± 0.11 |
| ADEDDEDAKYVINLKQI [RPT1] | 1.99 ± 0.13 | 2.66 ± 0.16 | 1.8 ± 0.2 | 2.61 ± 0.085 |
| NLENHFKKSKIDHINEE [SCL1] | 2.74 ± 0.072 | 3.16 ± 0.075 | 2.64 ± 0.065 | 2.58 ± 0.047 |

| Sequence | protein stability index (doa10∆) | protein stability index (pdr5∆) | protein stability index (san1∆) | protein stability index (ubr1∆) |
| --- | --- | --- | --- | --- |
| KVGEDIAKATKEFKGIK [RPL12A] | 3.07 ± 0.16 | 3.22 ± 0.14 | 3.25 ± 0.15 | 3.17 ± 0.15 |
| SQLPITPMTRISELPPQ [YGL172W/NUP49] | 2.35 ± 0.057 | 2.67 ± 0.047 | 2.13 ± 0.051 | 2.71 ± 0.041 |
| STRASTVPNLPTTMVTN [ISW2] | 1.92 ± 0.055 | 2.38 ± 0.056 | 2.35 ± 0.058 | 2.38 ± 0.047 |
| TVPRIVQLLSKSHNAHV [RPN2] | 1.91 ± 0.056 | 1.69 ± 0.044 | 2.08 ± 0.067 | 1.98 ± 0.048 |
| SQVDPITLFVLVSVVEA [FAS2] | 1.44 ± 0.045 | 2.03 ± 0.069 | 2.48 ± 0.077 | 1.45 ± 0.072 |
| SFLFSAIPLQQVLSQSA [SWI1] | 1.58 ± 0.054 | 1.43 ± 0.064 | 1.28 ± 0.091 | 1.39 ± 0.034 |
| TSPFGGARPGRVARRNA [RPS9A] | 2.8 ± 0.15 | 2.84 ± 0.28 | 3.02 ± 0.15 | 3.28 ± 0.1 |
| TQAAEFLSPYISTHLKT [IRR1] | 1.96 ± 0.039 | 2.32 ± 0.059 | 2.03 ± 0.073 | 2.21 ± 0.043 |
| DQYLWYEADQRKLFPNW [PRP8] |  |  |  | 3.13 ± 0.19 |
| RHHRKTEKEEDAELMAD [ISW2] | 3.5 ± 0.13 | 3.31 ± 0.11 | 3.15 ± 0.091 | 3.32 ± 0.089 |
| DSESDSDSETNHKSKDN [SKP1] | 2.75 ± 0.053 | 3.04 ± 0.051 | 3 ± 0.039 | 3.1 ± 0.044 |
| GVGKRKVWLDPNETSEI [RPL19A] | 3.13 ± 0.23 | 3.69 ± 0.24 |  | 3.04 ± 0.29 |
| KAALERLKVFEGIPPPY [RPL16A] | 2.57 ± 0.096 | 2.84 ± 0.12 | 3.09 ± 0.092 | 2.69 ± 0.085 |
| MSDHSLDKLNCAINSKS [RRP6] | 2.49 ± 0.057 | 2.8 ± 0.047 | 2.59 ± 0.051 | 2.83 ± 0.036 |
| AFNQVEIRPEMLGHYLG [RPS15] | 2.92 ± 0.12 | 3.09 ± 0.19 | 3.44 ± 0.12 | 3.19 ± 0.15 |
| NDEPSHKKIKVAQPDSL [SIR2] | 2.32 ± 0.079 | 2.31 ± 0.071 | 1.63 ± 0.1 | 3.19 ± 0.055 |
| VLTHESLHRQQQQQQQQ [DLS1] | 3 ± 0.082 | 2.9 ± 0.079 | 2.62 ± 0.052 | 2.85 ± 0.079 |
| NLGSNVRNSFPLDEIPV [REC8] | 2.95 ± 0.074 | 2.98 ± 0.13 | 2.88 ± 0.087 | 3.06 ± 0.058 |
| SGAITFVNETPRVIEPV [PRP8] |  | 1.96 ± 0.27 |  | 1.11 ± 0.045 |
| DKYHPGYFGKVGMRYFH [RPL28] | 3.23 ± 0.062 | 2.99 ± 0.072 | 2.99 ± 0.083 | 2.96 ± 0.044 |
| WSFDLPEMSNLYRLSTP [PRP8] | 2.71 ± 0.049 | 2.71 ± 0.04 | 2.59 ± 0.038 | 2.67 ± 0.043 |
| VTIIPLDKIYTRPISSQ [SMC2] | 1.66 ± 0.067 | 1.55 ± 0.084 | 1.64 ± 0.082 | 1.25 ± 0.045 |
